In publication PMC9005348:

Target: rsGCaMP.LP294TR.ΔRSET (rsGCaMP1.1)
Assay: crystal structure; crystals with domain-swapped dimers; for rsGCaMP1.1 the C2 space group, two molecules in the asymmetric unit; Ca2+-bound protein

rsGCaMP.LP294TR.ΔRSET (rsGCaMP1.1) showed a stoichiometry N of 2.
